T1: TNFRSF1A-Fc (human, UniProt P19438 30-211, limits assumed)
T1 construct: bought; also called TNFRSF1A (R&D Systems, 372-RI-050/CF); not shown: Fc part of the bought fusion
T1 sequence (looked up): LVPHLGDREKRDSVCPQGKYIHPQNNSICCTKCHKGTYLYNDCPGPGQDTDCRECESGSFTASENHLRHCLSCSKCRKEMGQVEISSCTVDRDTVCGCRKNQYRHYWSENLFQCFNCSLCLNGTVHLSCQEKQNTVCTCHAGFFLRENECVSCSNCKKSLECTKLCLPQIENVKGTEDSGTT

T2: TNFRSF1B-Fc (human, UniProt P20333 23-257)
T2 construct: bought; also called TNFRSF1B (R&D Systems, 726-R2-050); not shown: Fc part of the bought fusion
T2 sequence (looked up): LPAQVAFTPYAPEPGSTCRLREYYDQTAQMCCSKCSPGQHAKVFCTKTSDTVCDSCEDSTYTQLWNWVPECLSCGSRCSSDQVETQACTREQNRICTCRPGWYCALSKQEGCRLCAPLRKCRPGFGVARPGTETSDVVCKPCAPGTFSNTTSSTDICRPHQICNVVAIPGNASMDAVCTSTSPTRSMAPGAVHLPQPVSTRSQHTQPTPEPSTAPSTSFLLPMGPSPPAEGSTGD

T3: GITR-hFc-Avi (human, UniProt Q9Y5U5 26-161)
T3 construct: in-house produced; not shown: hFc and Avi part
T3 sequence: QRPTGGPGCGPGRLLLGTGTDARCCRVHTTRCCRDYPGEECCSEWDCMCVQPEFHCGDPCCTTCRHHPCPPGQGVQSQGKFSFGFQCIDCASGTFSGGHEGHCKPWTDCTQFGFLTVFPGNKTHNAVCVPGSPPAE

T4: NGFR-Fc (human, UniProt P08138 29-250)
T4 construct: bought; also called NGFR (R&D Systems, 367-NR-050/CF); not shown: Fc part of the bought fusion
T4 sequence (looked up): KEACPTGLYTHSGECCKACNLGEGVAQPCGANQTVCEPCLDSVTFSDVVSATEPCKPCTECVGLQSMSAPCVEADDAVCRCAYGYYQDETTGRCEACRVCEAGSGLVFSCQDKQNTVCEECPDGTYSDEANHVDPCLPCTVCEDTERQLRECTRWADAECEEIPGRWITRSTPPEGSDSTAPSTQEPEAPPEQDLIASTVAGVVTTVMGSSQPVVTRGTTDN

T5: human OX40-mFc (human, UniProt P43489 29-214)
T5 construct: produced in-house; negative control in the ELISA; also called human OX40-mFc-Avi; not shown: mFc part
T5 sequence: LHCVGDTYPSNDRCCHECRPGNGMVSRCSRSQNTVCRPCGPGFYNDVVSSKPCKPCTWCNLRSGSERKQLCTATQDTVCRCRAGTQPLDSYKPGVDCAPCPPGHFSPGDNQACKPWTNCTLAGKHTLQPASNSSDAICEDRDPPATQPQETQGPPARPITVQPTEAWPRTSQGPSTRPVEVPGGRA

T6: mFc-Avi (mouse, UniProt P01863 99-330 = IgG part)
T6 construct: mouse Fc domain with Avi tag; negative control in the ELISA
T6 chain: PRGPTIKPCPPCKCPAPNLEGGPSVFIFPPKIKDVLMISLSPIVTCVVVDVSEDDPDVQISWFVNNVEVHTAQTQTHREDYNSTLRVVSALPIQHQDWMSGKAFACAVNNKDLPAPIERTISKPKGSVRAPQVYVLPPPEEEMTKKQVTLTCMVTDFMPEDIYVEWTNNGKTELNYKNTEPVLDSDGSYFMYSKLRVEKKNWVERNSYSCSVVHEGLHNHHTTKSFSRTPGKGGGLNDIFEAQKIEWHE

T7: cyno CD137 on DO11.10-cCD137 cells (cynomolgus, UniProt Q07011 24-255 (human entry))
T7 construct: full-length cyno CD137 over-expressed on DO11.10 cells; also called cell surface-expressed cyno CD137
T7 chain: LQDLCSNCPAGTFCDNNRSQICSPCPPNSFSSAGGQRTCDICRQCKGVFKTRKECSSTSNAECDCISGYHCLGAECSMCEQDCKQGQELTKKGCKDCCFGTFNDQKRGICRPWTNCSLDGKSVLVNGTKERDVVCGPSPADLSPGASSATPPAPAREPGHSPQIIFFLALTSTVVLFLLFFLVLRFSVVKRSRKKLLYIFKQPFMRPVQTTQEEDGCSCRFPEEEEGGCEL


How the values were obtained:
[1] = biological target: human CD137 on primary human CD8+ T cells (human, UniProt Q07011 24-255); assay: cell-based or functional assay
TNFRSF1A-Fc = biological target: T1, TNFRSF1A-Fc; assay: SPR, antigen immobilised on CM5 chip
Description: (§1) Flow cell 1 was run as a blank immobilisation. The five FS20-22-49AA/FS30 mAb² were diluted to 1 μM and 1 nM in 1×HBS-EP buffer (GE Healthcare, product code BR100188), allowed to flow over the chip for 3 min and then allowed to dissociate for 4 minutes. A 30-second injection of 10 mM glycine pH 1.5 was used for regeneration. […] Binding levels were determined at the end of the association phase and compared.
(§2) Specificity was tested against the same five human TNFRSF members closely-related to CD137 (TNFRSF1A, TNFRSF1B, GITR, NGFR and CD40) plus an additional closely-related TNFRSF member, human DR6 (DR6-Fc; R&D Systems, 144-DR-100), using SPR as described in Example 3.1.

TNFRSF1B-Fc = biological target: T2, TNFRSF1B-Fc; assay: SPR, antigen immobilised on CM5 chip
Description: as §1, §2

GITR-hFc-Avi = biological target: T3, GITR-hFc-Avi; assay: SPR, antigen immobilised on CM5 chip
Description: as §1, §2

NGFR-Fc = biological target: T4, NGFR-Fc; assay: SPR, antigen immobilised on CM5 chip
Description: as §1, §2

CD40-mFc = biological target: T8, CD40-mFc (human, UniProt P25942 21-193); assay: SPR, antigen immobilised on CM5 chip
T8 construct: in-house produced; not shown: mFc part
Description: as §1, §2

human OX40-mFc = biological target: T5, human OX40-mFc; assay: ELISA on streptavidin plates, mAb 0.1 to 300 nM
Description: (§3) Blocking solution was discarded and a dilution series of anti-CD137 mAb concentrations (0.1 to 300 nM, 3-fold dilutions) was added and incubated for 1 hour at room temperature whilst shaking at 450 rpm. Plates were washed 3× with 300 µl PBS/Tween 0.05%. Goat anti-human IgG (Fc fragment) antibody conjugated to Horseradish Peroxidase (Sigma, A0170) was diluted 1:10000 in PBS and 90 µl was added to the wells. After incubation for 1 hour at 4° C. whilst shaking at 450 rpm, plates were washed 3× with 300 µl PBS/Tween 0.05%, 100 µl TMB substrate (eBioscience, 00-4201-56) was added to each well. The reaction was stopped between 2-10 minutes after addition of TMB by the addition of 50 µl 1M sulphuric acid solution. Optical density (OD) was read at 450-630 nm in a 96-well plate reader within 30 minutes of sulphuric acid addition and analysed using GraphPad Prism software (GraphPad Software, Inc.).

mFc-Avi = biological target: T6, mFc-Avi; assay: ELISA on streptavidin plates, mAb 0.1 to 300 nM
Description: as §3

streptavidin = biological target: T9, streptavidin (UniProt P22629 37-163, limits assumed); assay: ELISA on streptavidin plates, mAb 0.1 to 300 nM
T9 construct: negative control in the ELISA; also called Streptavidin plates (Thermo Scientific, 15500)
Description: as §3

[2] = biological target: T7, cyno CD137 on DO11.10-cCD137 cells; assay: flow cytometry on DO11.10-cCD137 cells, GMFI vs concentration
Description: (§4) Non-specific binding was also assessed by testing binding to DO11.10 cells and HEK293 cells lacking CD137 expression.
(§5) Briefly, DO11.10, HEK293, DO11.10-hCD137 or DO11.10-cCD137 suspensions were prepared in PBS containing 2% BSA (Sigma, A7906) and seeded at 4×10^6 cell/ml with 50 µl/well in V-bottomed 96-well plates (Costar, 3897). mAb dilutions (1·10^-6-100 nM, 10-fold dilutions) were prepared at 2× the final concentration in triplicate in 1×DPBS (Gibco, 14190-094). […] The cells were washed once with PBS and resuspended in 100 µl of PBS containing DAPI (Biotium, 40043) at 1 µg/ml. The cells were analysed using a Canto II flow cytometer (BD Bioscience). Dead cells were excluded and the fluorescence in the FITC channel (488 nm/530/30) was measured. The geometric mean fluorescence intensity (GMFI) values were plotted vs the log concentration of antibody and the resulting curves were fitted using the log (agonist) vs response equation in GraphPad Prism.

[3] = biological target: T10, human CD137 on DO11.10-hCD137 cells (human, UniProt Q07011 24-255); assay: flow cytometry on DO11.10-hCD137 cells, GMFI vs concentration
T10 construct: full-length human CD137 over-expressed on DO11.10 cells by lentiviral transduction; also called cell surface-expressed human CD137
Description: as §4, §5

human CD137 on primary human CD8+ T cells, sequence (Q07011 24-255): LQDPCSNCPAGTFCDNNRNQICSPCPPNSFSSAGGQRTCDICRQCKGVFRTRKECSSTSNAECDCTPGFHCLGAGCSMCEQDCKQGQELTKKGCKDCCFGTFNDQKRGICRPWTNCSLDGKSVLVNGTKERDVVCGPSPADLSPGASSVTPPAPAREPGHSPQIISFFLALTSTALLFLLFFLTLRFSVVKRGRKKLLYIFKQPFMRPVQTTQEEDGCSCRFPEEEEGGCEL
T9 sequence (P22629 37-163 limits assumed): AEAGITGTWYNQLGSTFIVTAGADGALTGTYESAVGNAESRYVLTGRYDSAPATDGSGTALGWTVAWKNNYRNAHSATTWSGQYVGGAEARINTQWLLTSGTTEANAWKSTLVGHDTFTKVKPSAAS
T10 sequence (Q07011 24-255): as the sequence (Q07011 24-255) above
T8 sequence (P25942 21-193): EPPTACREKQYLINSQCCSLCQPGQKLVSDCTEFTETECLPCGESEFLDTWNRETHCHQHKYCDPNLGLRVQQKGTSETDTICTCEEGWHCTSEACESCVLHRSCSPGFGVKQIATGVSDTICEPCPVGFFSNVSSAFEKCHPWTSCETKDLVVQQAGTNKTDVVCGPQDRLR

| Activity of non-crosslinked mAbs at 100 nM (hIL-2 pg/ml) [1] | EC50 (nM), hIL-2 release, primary human CD8+ T cell activation assay, crosslinked mAb [1] | Emax (hIL-2 pg/ml), crosslinked mAb [1] | binding result (TNFRSF1A-Fc) | binding result (TNFRSF1B-Fc) | binding result (GITR-hFc-Avi) | binding result (NGFR-Fc) | binding result (CD40-mFc) | binding result (human OX40-mFc) | binding result (mFc-Avi) | binding result (streptavidin) | EC50 [2] | EC50 [3] | Binder |
| --- | --- | --- | --- | --- | --- | --- | --- | --- | --- | --- | --- | --- | --- |
| 449 pg/mL | 8.5 nM | 11100 pg/mL | binds | binds | binds | binds | binds | no binding (tested: 300 nM) | no binding (tested: 300 nM) | no binding (tested: 300 nM) | 0.31 nM | 0.15 nM | G1AA/FS30-15 (antibody, human IgG1, kappa, L234A L235A, V domains shown, human IgG1 with LALA mutation in CH2; also called FS30-15 mAb) VH: EVQLLESGGGLVQPGGSLRLSCAASGFTFSGSGMSWVRQAPGKGLEWVSIIYSTNGDTDYADSVKGRFTISRDNSKNTLYLQMNSLRAEDTAVYYCARDFYDIANYYAFDYWGQGTLVTVSS VL: EIVLTQSPGTLSLSPGERATLSCRASQSVSSSYLAWYQQKPGQAPRLLIYGASSRATGIPDRFSGSGSGTDFTLTISRLEPEDFAVYYCQQAYYDPITFGQGTKVEIKR |
| 497 pg/mL | 5.4 nM | 8560 pg/mL | – | – | – | – | – | no binding (tested: 300 nM) | no binding (tested: 300 nM) | no binding (tested: 300 nM) | 0.57 nM | 0.32 nM | G1AA/FS30-10 (antibody, human IgG1, kappa, L234A L235A, V domains shown, human IgG1 with LALA mutation in CH2; also called FS30-10 mAb) VH: EVQLLESGGGLVQPGGSLRLSCAASGFTFSSYDMSWVRQAPGKGLEWVSDIDPTGSKTDYADSVKGRFTISRDNSKNTLYLQMNSLRAEDTAVYYCARDLMVYGFDYWGQGTLVTVSS VL: EIVLTQSPGTLSLSPGERATLSCRASQSVSSSYLAWYQQKPGQAPRLLIYGASSRATGIPDRFSGSGSGTDFTLTISRLEPEDFAVYYCQQSYSYPVTFGQGTKVEIKR |

— patent US12534534 (F STAR BETA, dated 2026)
